US20150232562A1 (Ablynx, published 2015)
Where a chain is given by its changes, count along the chain named. One block for each binder: values may come before it.

Target: T1, recombinant human ErbB2/Fc chimera (human, UniProt P04626 23-652)
T1 construct: bought from R&D Systems; also called rhErbB2-Fc; rhErb2-Fc; Fc part of the bought chimera not given; not described
Experiment: ELISA, coated ErbB2/Fc

- binding result: binds
B1: 118N121_A8_2_OK/1-124 (VHH)
VHH: EVQLVESGGGLVQAGGSLTLSCVISGLTLESHAMGWFRQAPGEEREFVATIRWSGSATFYSDSVKGRFTISRDNAKNTVYLQMNSLKPEDTAVYYCAARKIYRSLSYYGDYDSWGQGTQVTVSS
notes: C-term myc-His6 tag

- binding result: binds
B2: 13F81A/1-128 (VHH)
VHH: EVQLVESGGGLVQAGGSLRLSCAASGRTFSRYAMGWFRQAPGKEREFVAAISWTGGSSYYGDSVKGRSTISRENAENTVYLQMNSLKPEDTAVYYCAANSDEFYSGTLKLQSRMVEYWGQGTQVTVSS
notes: C-term myc-His6 tag

- binding result: binds
B3: 118N121_A5_2_OK/1-114 (VHH)
VHH: EVQLVESGGGSVQPGGSLRLSCVASGSISSTNAMGWHRQVSGKERELVAIVTDGFTNYADFAKGRFTISRDNAKTTVYLQMNSLQPEDTARYYCRYSGIGTDNWGQGIEVTVSS
notes: C-term myc-His6 tag

- binding result: binds
B4: 118N121_A9_2_OK/1-114 (VHH)
VHH: B3 VHH with T31V, S41P, E44Q
notes: C-term myc-His6 tag

- binding result: binds
B5: 118N121_B3_1_OK/1-123 (VHH)
VHH: EVQLVESGGGLVQPGGSLRLSCAASGRTFSDLALGWFRRAPGKEREHVAAISSSGVTTIYADSVRGRFTISRDEAKNTVYLEMNSLKTDDTAVYYCAARLTMATPNQSQYYYWGQGTQVTVSS
notes: C-term myc-His6 tag

- binding result: binds
B6: 118N121_A2_2_OK/1-124 (VHH)
VHH: KVQLVESGGGLVQAGGSLRLSCAASGRTFSNYSVGWFRQAPGKEREFVAALSKDGARTYYAASVKGRFTIYRDNAKNVVYLQMSVLNGEDTAVYYCAADHFTFMSNLPSEYDYWGQGTQVTVSS
notes: C-term myc-His6 tag

- binding result: binds
B7: 12C42/1-124 (VHH)
VHH: EVQLVESGGGLVQAGGSLRLSCAASGRTFSRYAMHWFRQAPGSERDFVAGISWDGGSTFYANSVKGRFTISRDNAKNMVYLQMNSLKPEDTAVYYCAAAGSAGPPSIDRQYDYWGQGTQVTVSS
notes: C-term myc-His6 tag

- binding result: binds
B8: 14H101/1-128 (VHH)
VHH: EVQLVESGGGLVQAGGSLRLSCAASGRTFISSPMGWFRQAPGKEREVVAATTRSGGLPYYSDSVKGRFTISRDNAKNTVDLQMSSLKPEDTAAYYCAADQKYGMSYSRLWLVSEYEYWGQGTQVTVSS
notes: C-term myc-His6 tag

- binding result: binds
B9: 14H81/1-125 (VHH)
VHH: EVQLVESGGGLVQAGGSLSLSCAASGRTFSNYRMAWFRQAPRKEREFVAAISRSGESTYFADSMKGRFTISRDNTESTGYLQMNNLKPEDTAVYYCAASWDHGDYVDGGFFYDYWGQGTQVTVSS
notes: C-term myc-His6 tag

- binding result: binds
B10: 12E42/1-118 (VHH)
VHH: EVQLVESGGGLVQPGGSLRLSCAHSGRAFSLRTMGWYRQAPGNQRELVALISAGDSTYYPDSVKGRFTVSRDNAKNTVYLQMNSLKPEDTAVYYCNAKAVTSRDHEYWGQGTQVTVSS
notes: C-term myc-His6 tag

- binding result: binds
B11: 118N121_A6_2_OK/1-123 (VHH)
VHH: EVQLVESGGGLVQAGGSLRLSCVASGRTFSGYSVGWFRQSPGKEREFVGGINWSGRTYYVDSVKGRFTFSRDNAKNTVYLQMNSLKPEDTAIYLCAVDRFNTIANLPGEYDYWGQGTQVTVSS
notes: C-term myc-His6 tag

- binding result: binds
B12: 118N121_A7_1_OK/1-122 (VHH)
VHH: EVQLVESGGGLVQPGGSLRLSCAASGNIKSIDVMGWHRQAPGKERELVSDISFGGNTNYANSVKGRFTISRDNAKNTVYLQMNSLKPEDTAVYYCYADILYKTDIYYRNDFWGQGTQVTVSS
notes: C-term myc-His6 tag

- binding result: binds
B13: 11B102/1-118 (VHH)
VHH: EVQLVESGGGLVQAGGSLRLSCAASGGIFSSHAISWFRQAPGKAREFVAAINWSGSHRDYADSAKGRFTISRDNAKKTAYLQMNSLRPEDTAVYYCVGGWKTDEYVKWGQGTQVTVSS
notes: C-term myc-His6 tag

- binding result: binds
B14: 21A41/1-120 (VHH)
VHH: EVQLVESGGGLVQAGGSLRLSCAASGRIFSNYAWSWFRQAPGKERGFVAAINWSGGYTDYADSVKGRFTISRDNTKNTVYLQMNSLKPEDTAVYYCRPGWVTPSYEYGNWGQGTQVTVSS
notes: C-term myc-His6 tag

- binding result: binds
B15: 11A52/1-120 (VHH)
VHH: EVQLVESGGGLVQAGGSLRLSCAASGRALSNYAMRWFRQAPGKEREFVATINWSGSHTDYADSVKGRFTISRDNAENTVYLQMNSLTPEDTAVYYCASGWGATQAQSGFWGQGTQVTVSS
notes: C-term myc-His6 tag

- binding result: binds
B16: 14H111/1-120 (VHH)
VHH: B15 VHH with S30I, N31S, Y32F, T50A, S56T, Q82L, T87I, S98T, S107H
notes: C-term myc-His6 tag

- binding result: binds
B17: 21A31/1-125 (VHH)
VHH: EVQLVESGGGLVQAGGSLRLSCAASEPTFSSVAMGWFRQGPGKEREFAATITWSGDSTYVTDSVKGRFTISRDNARNTAYLQMDSLRPEDTAVYSCAARRWSGTLSLFDNEYYYWGQGTQVTVSS
notes: C-term myc-His6 tag

- binding result: binds
B18: 11B61/1-120 (VHH)
VHH: EVQLVESGGGLVQAGGSLRLSCAASGRTSSGYGMGWFRQAPGKEREFVAAVGWYGSTYFADSVKGRFTIYRDNAQNTMYLQMNSLKPEDTAVYYCAASSSLATISQPSSWGQGTQVTVSS
notes: C-term myc-His6 tag

- binding result: binds
B19: 12D102/1-118 (VHH)
VHH: EVQLVESGGGLVQPGGSLRLSCAASGSSLSFNAMGWSREAPGKRRELVARIISDDSTLYADSVKGRFTISRDYAKNTAYLQMNSLKPEDTAVYYCVADVRDSIWRSYWGQGTQVTVSS
notes: C-term myc-His6 tag

- binding result: binds
B20: 12C91/1-121 (VHH)
VHH: EVQLVESGGGLVQAGGSLRLSCVASGRTSSYYHMAWFRQAPGKEREFIAAINLSSGSTYYPDSVKGRFTISRGNAKNTVNLQMNSLKPEDTAVYYCAADNYRDSYLEYDYWGQGTQVTVSS
notes: C-term myc-His6 tag

- binding result: binds
B21: 12E33/1-119 (VHH)
VHH: EVQLVESGGGMVQAGGSLRLSCAASGLTLSNYGMGWFRQAPGKEREFVSSINWSGTHTYDADFVKGRFIISRDNAKNTVYLQINSLKPEDTAVYYCAAGGWGTGRYNYWGQGTQVTVSS
notes: C-term myc-His6 tag

- binding result: binds
B22: 13G11/1-122 (VHH)
VHH: EVQLVESGGGLVQAGGSLRLSCAASGRTFISNYAMGWFRQAPGKEREFVATINWSGSHSDYADSVKGRFTISRDNAKNTVYLQMNNLKSEDTAVYYCAPGWGTAPLSTSVYWGQGTQVTVSS
notes: C-term myc-His6 tag

- binding result: binds
B23: 12E21/1-115 (VHH)
VHH: EVQLVESGGGLVQPGGSLRLSCAASGSIDSIHVVGWYRKAPGKQREVVAYIGTAGATHYADSVKGRFTISRDNAENLVYLQMNNLKPEDTAVYYCSAGWGDSAYWGQGTQVTVSS
notes: C-term myc-His6 tag

- binding result: binds
B24: 118N121_B8_1_OK/1-135 (VHH)
VHH: EVQLVESGGGLVQDGGSLRLSCAASGQLANFASYAMGWFRQAPGKAREFVAAIRGSGGSTYIADPARSTYYADFVKGRFTISRDNAKNTVYLQMNSLKPEDTAVYYCACETFNSISNLPGEYDYWGQGTQVTVSS
notes: C-term myc-His6 tag

- binding result: binds
B25: 13F21/1-123 (VHH)
VHH: EVQLVESGGGLVQSGGSLRLSCVASGTIVSINATSWYRQAPGNQRELVATIIGDGRTHYADSVKDRFTISRDAAANLVYLQMNSLKPSDTAIYSCNANGIESYGWGNRHFNYWTVGTQVTVSS
notes: C-term myc-His6 tag
